Laboratory results taken from patent US20020155571A1, “Triazine degrading enzymes” (priority 2000, published 2002).

Assay: High throughput mass spectrometry screen of triazine hydrolase library against about 15 triazine derivatives
Type: biochemical
Settings: Table 5; the value is the triazine substrate the library member (atzA-based variant) is active on; preferred members, not exclusive

| Molecule | Substrate Activity |
| --- | --- |
| 113 (protein) MQTLSIQHGTLVTMDQYRRVLGDSWVHVQDGRIVALGVHAESVPPPADRVIDARGKVVLPGFINAHTHVNQILLRGGPSHGRQFYDWLFNVLYPGQKAMRPEVAVAVRLYCAEAVRSGITTINEEADSAIYPGNIEAAMAVYGEVGVRVVYARMFFDRMDGRIQGYVDALKARSPQVELCSIMEETAVAKDRITALSDQYHGTAGGRISVWPAPATTTTVTVEGMRWAQAFARDRAVMWTLHMAESDHDERIIGGSPAEYMECYGLLDERLQVAHCVYFDRKDVRLLHRHNVKVASQVVSNAYLGSGVAPVPEMVERGMAVGIGTDNDNSCDSVNMIGDMKFMAHIHRAVHRDADVLTPEKILEMATIDGARSLGMDHEIGSIETGKRADLILLDLRHPQTTPHHHLAATIVFQAYGNEVDTVLIDGNVVMENRRLSFLPPERELAFLEEAQSRATAILQRANMVANPAWRSL | atratone |
| 117 (protein) MQTLSIQHGTLVTMDQYRRVLGDSWVHVQDGRIVALGVHAESVPPPADRVIDARGKVVLPGFINAHTHVNQILLRGGPSHGRQFYDWLFNVLYPGQKAMRPEVAVAVRLYCAEAVRSGITTINEEADSAIYPGNIEAAMAVYGEVGVRVVYARMFFDRMDGRIQGYVDALKARSPQVELCSIMEETAVAKDRITALSDQYHGTAGGRISVWPAPATTTTVTVEGMRWAQAFARDRAVMWTLHMAESDHDERIIGWSPAEYMECYGLLDERLQVAHCVYFDRKDVRLLHRHNVKVASQVVSNAYLGSGVAPVPEMVERGMAVGIGTDNDNSCDSVNMIGDMKFMAHIHRAVHRDADVLTPEKILEMATIDGARSLGMDHEIGSIETGKRADLILLDLRHPQTTPHHHLAATIVFQAYGNEVDTVLIDGNVVMENRRLSFLPPERELAFLEEAQSRATAILQRANMVANPAWRSL | atratone |
| 124 (protein) MQTLSIQHGTLVTMDQYRRVLGDSWVHVQDGRIVALGVHAESVPPPADRVIDARGKVVLPGFINAHTHVNQILLRGGPSHGRQFYDWLFNVLYPGQKAMRPEVAVAVRLYCAEAVRSGITTINEEADSAIYPGNIEAAMAVYGEVGVRVVYARMFFDRMDGRIQGYVDALKARSPQVELCSIMEETAVAKDRITALSDQYHGTAGGRISVWPAPATTTTVTVEGMRWAQAFARDRAVMWTLHMAESDHDERILGGSPAEYMECYGLLDERLQVAHCVYFDRKDVRLLHRHNVKVASQVVSNAYLGSGVAPVPEMVERGMAVGIGTDNNNSSDSVNMIGDMKFMAHIHRAVHRDADVLTPEKILEMATIDGARSLGMDHEIGSIETGKRADLILLDLRHPQTTPHHHLAATIVFQAYGNEVDTVLIDGNVVMENRRLSFLPPERELAFLEEAQSRATAILQRANMVANPAWRSL | atrazine |
| 128 (protein) MQTLSIQHGTLVTMDQYRRVLGDSWVHVQDGRIVALGVHAESVPPPADRVIDARGKVVLPGFINAHTHVNQILLRGGPSHGRQFYDWLFNVLYPGQKAMRPEVAVAVRLYCAEAVRSGITTINEEADSAIYPGNIEAAMAVYGEVGVRVVYARMFFDRMDGRIQGYVDALKARSPQVELCSIMEETAVAKDRITALSDQYHGTAGGRISVWPAPATTTTVTVEGMRWAQAFARDRAVMWTLHMAESDHDERILGWSPAEYMECYGLLDERLQVAHCVYFDRKDVRLLHRHNVKVASQVVSNAYLGSGVAPVPEMVERGMAVGIGTDNNNSSDSVNMIGDMKFMAHIHRAVHRDADVLTPEKILEMATIDGARSLGMDHEIGSIETGKRADLILLDLRHPQTTPHHHLAATIVFQAYGNEVDTVLIDGNVVMENRRLSFLPPERELAFLEEAQSRATAILQRANMVANPAWRSL | atrazine |

Same assay, conditions: substrate ametryn; preferred substrates, not exclusive

| Molecule | Substrate Activity: ametryn |
| --- | --- |
| 382 (protein) MQTLSIQHGTLVTMDQYRRVLGDSWVHVQDGRIVALGVHAESVPPPADRVIDARGKVVLPGFINAHTHVNQILLRGGPSHGRQLYDWLFNVLYPGQKAMRPEVAVAVRLYCAEAVRSGITTINEEADSAIYPGNIEAAMAVYGEVGVRVVYARMFFDRMDGRIQGYVDALKARSPQVELCSIMEETAVAKDRITALSDQYHGTAGGRISVWPAPATTTTVTVEGMRWAQAFARDRAVMWTLHMAESDHDERILGWSPAEYMECYGLLDERLQVAHCVYFDRKDVRLLHRHNVKVASQVVSNAYLGSGVAPVPEMVERGMAVGIGTDNDNSSDSVNMIGDMKFMAHIHRAVHRDADVLTPEKILEMATIDGARSLGMDHEIGSIETGKRADLILLDLRHPQTTPHHHLAATIVFQAYGNEVDTVLIDGNVVMENRRLSFLPPERELAFLEEAQSRATAILQRANMVANPAWRSL | ametryn |
| 314 (protein) MQTLSIQHGTLVTMDQYRRVLGDSWVHVQDGRIVALGVHAESVPPPADRVIDARGKVVLPGFINAHTHVNQILLRGGPSHGRQLYDWLFNVLYPGQKAMRPEVAVAVRLYCAEAVRSGITTINEDADSAIYPGNIEAAMAVYGEVGVRVVYARMFFDRMDGRIQGYVDALKARSPQVELCSIMEETAVAKDRITALSDQYHGTAGGRISVWPAPATTTTVTVEGMRWAQAFARDRAVMWTLHMAESDHDERILGGSPAEYMECYGLLDERLQVAHCVYFDRKDVRLLHRHNVKVASQVVSNAYLGSGVAPVPEMVERGMAVGIGTDNDNSSDSVNMIGDMKFMAHIHRAVHRDADVLTPEKILEMATIDGARSLGMDHEIGSIETGKRADLILLDLRHPQTTPHHHLAATIVFQAYGNEVDTVLIDGNVVMENRRLSFLPPERELAFLEEAQSRATAILQRANMVANPAWRSL | ametryn |
| 370 (protein) MQTLSIQHGTLVTMDQYRRVLGDSWVHVQDGRIVALGVHAESVPPPADRVIDARGKVVLPGFINAHTHVNQILLRGGPSHGRQLYDWLFNVLYPGQKAMRPEVAVAVRLYCAEAVRSGITTINEEADSAIYPGNIEAAMAVYGEVGVRVVYARMFFDRMDGRIQGYVDALKARSPQVELCSIMEETAVAKDRITALSDQYHGTAGGRISVWPAPATTTTVTVEGMRWAQAFARDRAVMWTLHMAESDHDERIIGGSPAEYMECYGLLDERLQVAHCVYFDRKDVRLLHRHNVKVASQVVSNAYLGSGVAPVPEMVERGMAVGIGTDNDNSSDSVNMIGDMKFMAHIHRAVHRDADVLTPEKILEMATIDGARSLGMDHEIGSIETGKRADLILLDLRHPQTTPHHHLAATIVFQAYGNEVDTVLIDGNVVMENRRLSFLPPERELAFLEEAQSRATAILQRANMVANPAWRSL | ametryn |
| 318 (protein) MQTLSIQHGTLVTMDQYRRVLGDSWVHVQDGRIVALGVHAESVPPPADRVIDARGKVVLPGFINAHTHVNQILLRGGPSHGRQLYDWLFNVLYPGQKAMRPEVAVAVRLYCAEAVRSGITTINEDADSAIYPGNIEAAMAVYGEVGVRVVYARMFFDRMDGRIQGYVDALKARSPQVELCSIMEETAVAKDRITALSDQYHGTAGGRISVWPAPATTTTVTVEGMRWAQAFARDRAVMWTLHMAESDHDERILGWSPAEYMECYGLLDERLQVAHCVYFDRKDVRLLHRHNVKVASQVVSNAYLGSGVAPVPEMVERGMAVGIGTDNDNSSDSVNMIGDMKFMAHIHRAVHRDADVLTPEKILEMATIDGARSLGMDHEIGSIETGKRADLILLDLRHPQTTPHHHLAATIVFQAYGNEVDTVLIDGNVVMENRRLSFLPPERELAFLEEAQSRATAILQRANMVANPAWRSL | ametryn |

Same assay, conditions: substrate nme-atrazine; column lists substrates on which the library member shows preferred triazine hydrolase activity, not exclusive

| Molecule | Substrate Activity: nme-atrazine |
| --- | --- |
| 345 (protein) MQTLSIQHGTLVTMDQYRRVLGDSWVHVQDGRIVALGVHAESVPPPADRVIDARGKVVLPGFINAHTHVNQILLRGGPSHGRQLYDWLFNVLYPGQKAMRPEVAVAVRLYCAEAVRSGITTINEEADSAIYPGNIEAAMAVYGEVGVRVVYARMFFDRMDGRIQGYVDALKARSPQVELCSIMEETAVAKDRITALSDQYHGTAGGRISVWPAPATITTVTVEGMRWAQAFARDRAVMWTLHMAESDHDERILGGSPAEYMECYGLLDERLQVAHCVYFDRKDVRLLHRHNVKVASQVVSNAYLGSGVAPVPEMVERGMAVGIGTDNDNSCDSVNMIGDMKFMAHIHRAVHRDADVLTPEKILEMATIDGARSLGMDHEIGSIETGKRADLILLDLRHPQTTPHHHLAATIVFQAYGNEVDTVLIDGNVVMENRRLSFLPPERELAFLEEAQSRATAILQRANMVANPAWRSL | nme-atrazine |
| 349 (protein) MQTLSIQHGTLVTMDQYRRVLGDSWVHVQDGRIVALGVHAESVPPPADRVIDARGKVVLPGFINAHTHVNQILLRGGPSHGRQLYDWLFNVLYPGQKAMRPEVAVAVRLYCAEAVRSGITTINEEADSAIYPGNIEAAMAVYGEVGVRVVYARMFFDRMDGRIQGYVDALKARSPQVELCSIMEETAVAKDRITALSDQYHGTAGGRISVWPAPATITTVTVEGMRWAQAFARDRAVMWTLHMAESDHDERILGWSPAEYMECYGLLDERLQVAHCVYFDRKDVRLLHRHNVKVASQVVSNAYLGSGVAPVPEMVERGMAVGIGTDNDNSCDSVNMIGDMKFMAHIHRAVHRDADVLTPEKILEMATIDGARSLGMDHEIGSIETGKRADLILLDLRHPQTTPHHHLAATIVFQAYGNEVDTVLIDGNVVMENRRLSFLPPERELAFLEEAQSRATAILQRANMVANPAWRSL | nme-atrazine |

Same assay, conditions: substrate propazine; column indicates preferred embodiments, not exclusive

| Molecule | Substrate Activity |
| --- | --- |
| 244 (protein) MQTLSIQHGTLVTMDQYRRVLGDSWVHVQDGRIVALGVHAESVPPPADRVIDARGKVVLPGFINAHTHVNQILLRGGPSHGRQFYDWLFNVVYPGQKAMRPEVAVAVRLYCAEAVRSGITTINEEADSAIYPGNIEAAMAVYGEVGVRVVYARMFFDRMDGRIQGYVDALKARSPQVELCSIMEETAVAKDRITALSDQYHGTAGGRISVWPAPATTTTVTVEGMRWAQAFARDRAVMWTLHMAESDHDERIIGGSPAEYMECYGLLDERLQVAHCVYFDRKDVRLLHRHNVKVASQVVSNAYLGSGVAPVPEMVERGMAVGIGTDNNNSSDSVNMIGDMKFMAHIHRAVHRDADVLTPEKILEMATIDGARSLGMDHEIGSIETGKRADLILLDLRHPQTTPHHHLAATIVFQAYGNEVDTVLIDGNVVMENRRLSFLPPERELAFLEEAQSRATAILQRANMVANPAWRSL | propazine |
| 248 (protein) MQTLSIQHGTLVTMDQYRRVLGDSWVHVQDGRIVALGVHAESVPPPADRVIDARGKVVLPGFINAHTHVNQILLRGGPSHGRQFYDWLFNVVYPGQKAMRPEVAVAVRLYCAEAVRSGITTINEEADSAIYPGNIEAAMAVYGEVGVRVVYARMFFDRMDGRIQGYVDALKARSPQVELCSIMEETAVAKDRITALSDQYHGTAGGRISVWPAPATTTTVTVEGMRWAQAFARDRAVMWTLHMAESDHDERIIGWSPAEYMECYGLLDERLQVAHCVYFDRKDVRLLHRHNVKVASQVVSNAYLGSGVAPVPEMVERGMAVGIGTDNNNSSDSVNMIGDMKFMAHIHRAVHRDADVLTPEKILEMATIDGARSLGMDHEIGSIETGKRADLILLDLRHPQTTPHHHLAATIVFQAYGNEVDTVLIDGNVVMENRRLSFLPPERELAFLEEAQSRATAILQRANMVANPAWRSL | propazine |
